The source of these data is PMC10786891, “Massively parallel profiling of RNA-targeting CRISPR-Cas13d”.

Residue numbers refer to the chain shown, from its start. In names and notes the source's numbering stands.

By Kd is commonly meant the concentration at which binding is half-saturated. Low values mean a tighter complex, high ones a looser complex.

To fix the notation:
T1: EsCas13d, nuclease-dead (Eubacterium siraeum, UniProt B0MS50, R295A;H300A;R849A;H854A)
T1 sequence: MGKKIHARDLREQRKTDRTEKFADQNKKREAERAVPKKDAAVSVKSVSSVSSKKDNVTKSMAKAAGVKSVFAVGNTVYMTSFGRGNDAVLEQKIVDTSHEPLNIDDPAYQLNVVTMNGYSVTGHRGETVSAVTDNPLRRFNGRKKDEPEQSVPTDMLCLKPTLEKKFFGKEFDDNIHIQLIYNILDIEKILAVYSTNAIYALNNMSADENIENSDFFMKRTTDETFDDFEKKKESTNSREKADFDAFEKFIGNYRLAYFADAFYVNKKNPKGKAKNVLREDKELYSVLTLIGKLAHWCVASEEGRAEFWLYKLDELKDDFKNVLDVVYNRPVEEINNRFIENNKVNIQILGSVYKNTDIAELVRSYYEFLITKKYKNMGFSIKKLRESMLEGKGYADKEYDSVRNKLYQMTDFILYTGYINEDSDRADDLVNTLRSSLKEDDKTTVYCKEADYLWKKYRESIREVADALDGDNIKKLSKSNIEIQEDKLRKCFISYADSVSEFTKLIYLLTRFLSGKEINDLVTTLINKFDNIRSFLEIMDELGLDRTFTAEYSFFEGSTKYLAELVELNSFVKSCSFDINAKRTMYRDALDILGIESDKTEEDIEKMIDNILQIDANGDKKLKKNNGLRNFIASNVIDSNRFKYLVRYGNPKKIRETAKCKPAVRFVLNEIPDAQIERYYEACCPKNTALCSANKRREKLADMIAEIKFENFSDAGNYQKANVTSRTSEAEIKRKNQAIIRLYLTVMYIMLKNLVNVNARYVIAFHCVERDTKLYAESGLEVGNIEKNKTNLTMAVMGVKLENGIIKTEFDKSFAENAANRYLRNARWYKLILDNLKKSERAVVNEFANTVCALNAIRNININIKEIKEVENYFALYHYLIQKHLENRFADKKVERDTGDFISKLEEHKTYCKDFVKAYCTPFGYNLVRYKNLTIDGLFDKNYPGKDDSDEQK

B1: target 2 MT 5'PFS GAG 3'PFS UAG (mixed)
RNA 1: CACCCGUGCAAAAUUGCAGGGGUCUAAAACCUUCUCCAAAUUGUUUCAUCCU
RNA 2: GGGAAUGGAUCCACAUCUACGAAUUCGAGAGGAUGAAACAAUUUGGAGAAGUAGAGAUCGGAAGAGCACACGU
B2: target 2 MT 5'PFS GGG 3'PFS AAC (mixed)
RNA 1: B1 RNA 1
RNA 2: B1 RNA 2 with A28G, U52A, G54C
B3: target 2 MT 5'PFS AGC 3'PFS AGG (mixed)
RNA 1: B1 RNA 1
RNA 2: B1 RNA 2 with G27A, A28G, G29C, U52A, A53G
B4: target 2 MT 5'PFS GAG 3'PFS UUG (mixed)
RNA 1: B1 RNA 1
RNA 2: B1 RNA 2 with A53U
B5: target 2 MT 5'PFS GUU 3'PFS AGU (mixed)
RNA 1: B1 RNA 1
RNA 2: B1 RNA 2 with A28U, G29U, U52A, A53G, G54U
B6: target 2 MT 5'PFS AGC 3'PFS AGU (mixed)
RNA 1: B1 RNA 1
RNA 2: B1 RNA 2 with G27A, A28G, G29C, U52A, A53G, G54U
B7: target 2 MT 5'PFS GGG 3'PFS AAU (mixed)
RNA 1: B1 RNA 1
RNA 2: B1 RNA 2 with A28G, U52A, G54U
B8: target 2 MT 5'PFS GAG 3'PFS UAA (mixed)
RNA 1: B1 RNA 1
RNA 2: B1 RNA 2 with G54A
B9: target 2 MT 5'PFS GCU 3'PFS AUC (mixed)
RNA 1: B1 RNA 1
RNA 2: B1 RNA 2 with A28C, G29U, U52A, A53U, G54C
B10: target 2 MT 5'PFS CGG 3'PFS UAC (mixed)
RNA 1: B1 RNA 1
RNA 2: B1 RNA 2 with G27C, A28G, G54C
B11: target 2 MT 5'PFS GGG 3'PFS AAG (mixed)
RNA 1: B1 RNA 1
RNA 2: B1 RNA 2 with A28G, U52A
B12: target 2 MT 5'PFS CUC 3'PFS UAU (mixed)
RNA 1: B1 RNA 1
RNA 2: B1 RNA 2 with G27C, A28U, G29C, G54U
B13: target 2 MT 5'PFS GCU 3'PFS AUG (mixed)
RNA 1: B1 RNA 1
RNA 2: B1 RNA 2 with A28C, G29U, U52A, A53U
B14: target 2 MT 5'PFS AGC 3'PFS UAA (mixed)
RNA 1: B1 RNA 1
RNA 2: B1 RNA 2 with G27A, A28G, G29C, G54A
B15: target 2 MT 5'PFS GCU 3'PFS AUU (mixed)
RNA 1: B1 RNA 1
RNA 2: B1 RNA 2 with A28C, G29U, U52A, A53U, G54U
B16: target 2 MT 5'PFS GGG 3'PFS AAA (mixed)
RNA 1: B1 RNA 1
RNA 2: B1 RNA 2 with A28G, U52A, G54A
B17: target 2 MT 5'PFS GAG 3'PFS UAC (mixed)
RNA 1: B1 RNA 1
RNA 2: B1 RNA 2 with G54C
B18: target 2 MT 5'PFS AGC 3'PFS UAC (mixed)
RNA 1: B1 RNA 1
RNA 2: B1 RNA 2 with G27A, A28G, G29C, G54C
B19: target 2 MT 5'PFS AGC 3'PFS AGC (mixed)
RNA 1: B1 RNA 1
RNA 2: B1 RNA 2 with G27A, A28G, G29C, U52A, A53G, G54C
B20: target 2 MT 5'PFS CGG 3'PFS UAA (mixed)
RNA 1: B1 RNA 1
RNA 2: B1 RNA 2 with G27C, A28G, G54A
B21: target 2 MT 5'PFS GCG 3'PFS CAG (mixed)
RNA 1: B1 RNA 1
RNA 2: B1 RNA 2 with A28C, U52C
B22: target 2 MT 5'PFS UCA 3'PFS UCA (mixed)
RNA 1: B1 RNA 1
RNA 2: B1 RNA 2 with G27U, A28C, G29A, A53C, G54A
B23: target 2 MT 5'PFS GAG 3'PFS UUA (mixed)
RNA 1: B1 RNA 1
RNA 2: B1 RNA 2 with A53U, G54A
B24: target 2 MT 5'PFS CUC 3'PFS UAG (mixed)
RNA 1: B1 RNA 1
RNA 2: B1 RNA 2 with G27C, A28U, G29C
B25: target 2 MT 5'PFS AGC 3'PFS UAU (mixed)
RNA 1: B1 RNA 1
RNA 2: B1 RNA 2 with G27A, A28G, G29C, G54U
B26: target 2 MT 5'PFS CUC 3'PFS UAA (mixed)
RNA 1: B1 RNA 1
RNA 2: B1 RNA 2 with G27C, A28U, G29C, G54A
B27: target 2 MT 5'PFS GCU 3'PFS AUA (mixed)
RNA 1: B1 RNA 1
RNA 2: B1 RNA 2 with A28C, G29U, U52A, A53U, G54A
B28: target 2 MT 5'PFS CGG 3'PFS UAU (mixed)
RNA 1: B1 RNA 1
RNA 2: B1 RNA 2 with G27C, A28G, G54U
B29: target 2 MT 5'PFS AGC 3'PFS AGA (mixed)
RNA 1: B1 RNA 1
RNA 2: B1 RNA 2 with G27A, A28G, G29C, U52A, A53G, G54A
B30: target 2 MT 5'PFS CUC 3'PFS UAC (mixed)
RNA 1: B1 RNA 1
RNA 2: B1 RNA 2 with G27C, A28U, G29C, G54C
B31: target 2 MT 5'PFS GCG 3'PFS CAA (mixed)
RNA 1: B1 RNA 1
RNA 2: B1 RNA 2 with A28C, U52C, G54A
B32: target 1 insG 3' of 1,insG 3' of 1 (mixed)
RNA 1: CACCCGUGCAAAAAUGCAGGGGUCUAAAACUGAGCGGAUAACCUCUCUAUGG
RNA 2: GGGAAUGGAUCCACAUCUACGAAUUCGUACCAUAGAGAGGUUAUCCGCUCAGGCCGAGAUCGGAAGAGCACACGU
B33: target 1 C2A,C4G (mixed)
RNA 1: B32 RNA 1
RNA 2: GGGAAUGGAUCCACAUCUACGAAUUCGUACCAUAGAGAGGUUAUCCGGUAACCGAGAUCGGAAGAGCACACGU
B34: target 1 insG 3' of 4,insU 3' of 1 (mixed)
RNA 1: B32 RNA 1
RNA 2: B32 RNA 2 with U49G, C50U, A51C, G52A, G53U
B35: target 1 insC 3' of 18,insA 3' of 10 (mixed)
RNA 1: B32 RNA 1
RNA 2: GGGAAUGGAUCCACAUCUACGAAUUCGUACCAUACGAGAGGUUAAUCCGCUCACCGAGAUCGGAAGAGCACACGU

This data set concerns the target T1, EsCas13d, nuclease-dead. Briefly: crRNA (strand 1, pre-loaded); Mg2+; 40 mM Tris-HCl pH 7.5, 150 mM NaCl, 6 mM MgCl2, 1 mM DTT, 0.1% Tween-20, 0.2 mg/ml BSA; 25 C; 10 min per concentration, then washed. To be noted: tags: His6-TwinStrep-SUMO cleaved; N-terminal SNAP kept (SNAP-Surface 488); label: 3' end held by stalled T7 RNA polymerase.
Consider B1, for which the Kd was 6.2 ± 0.7 nM.

B2 showed a Kd of 8.7 ± 1 nM.

B3 yielded a Kd of 7.1 ± 1 nM.

Take B4: the Kd turned out to be 8.5 ± 1 nM.

Regarding B5, the Kd came out at 9.9 ± 0.8 nM.

The molecule B6 gave a Kd of 10.2 ± 1.6 nM.

With B7, the affinity, expressed as Kd, was 6.2 ± 0.6 nM.

Molecule B8 had a Kd of 5.1 ± 0.7 nM.

For B9, the Kd worked out at 14.5 ± 2.8 nM.

As to B10, the affinity, expressed as Kd, was 5.3 ± 0.6 nM.

For B11, binding was characterised by a dissociation constant (Kd) of 8.9 ± 1 nM.

Take B12: the Kd is 1.99 ± 0.13 nM.

On to B13, for which the Kd amounted to 22 ± 6 nM.

As to B14, binding was put at a Kd of 8.7 ± 1.7 nM.

Take B15: the Kd amounted to 15 ± 4 nM.

In turn, B16 yielded a Kd of 6.7 ± 0.9 nM.

B17: the Kd is 10.6 ± 1.7 nM.

B18 returned a Kd of 10.5 ± 2.3 nM.

As for B19, the Kd worked out at 7.1 ± 1.6 nM.

Molecule B20 registered a Kd of 4.4 ± 0.7 nM.

B21 came in with a Kd of 9.4 ± 0.9 nM.

As for B22, the Kd worked out at 4.3 ± 0.7 nM.

Regarding B23, binding was characterised by a dissociation constant (Kd) of 14.2 ± 2.2 nM.

With B24, the Kd stood at 3.4 ± 0.6 nM.

In the case of B25, binding was put at a Kd of 8.9 ± 1.3 nM.

With B26, the Kd was 2.05 ± 0.35 nM.

As for B27, the affinity, expressed as Kd, was 8.9 ± 1.1 nM.

For the molecule B28, the dissociation constant Kd amounted to 5 ± 0.8 nM.

With B29, the Kd was found to be 7.1 ± 1 nM.

Regarding B30, the affinity, expressed as Kd, was 2.32 ± 0.23 nM.

B31 returned a Kd of 9.7 ± 1.9 nM.

Molecule B32 came in with a Kd of 8.6 ± 0.5 nM.

As to B33, the Kd was determined as 12 ± 0.6 nM.

Molecule B34 had a Kd of 9.1 ± 0.4 nM.

B35: the Kd came out at 52 ± 4 nM.
